Test results from the supplement of paper PMC10126150.
± gives the standard deviation of the averaged measurements.

Test system: ATP
Assay: switch fluorescence ratio, 500 uM ATP over buffer (Cy3 cluster intensity, sum of 5 cycles each) (fold (ratio)); higher = stronger signal-on switching upon ATP binding; sequences stand for … in TCGTCGGCAGCGTCAGATGTGTATAAGAGACAGTTTTTTTTTTTTTTTTTTTTTTTTT…TC
Conditions: aptamer strand: ATP DNA aptamer (quencher-CACCTGGGGGAGTATTGCGGAGGAAGG + anchor), 100 nM annealed; ATP concentration: 500 uM
Procedure, shortened: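 Imaging in selection buffer was followed by imaging after 15 min with 500 uM ATP at 22 °C, for Cy3-labelled switching-strand clusters annealed to 100 nM quencher-labelled ATP aptamer on a modified Illumina MiSeq flow-cell. Five of these buffer/ATP cycles ran, separated by NaOH stripping and re-annealing. The fluorescence ratio per cluster is summed target-cycle over summed buffer-cycle Cy3 intensity, averaged per switch-domain sequence; clusters outside 100-1000 RFU were removed.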
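Also: ATP exposure 15 min at 22 °C before imaging.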

Row | Sequence | switch fluorescence ratio
1 | CAAATAATAG | 0.977 ± 0.033
2 | CAAATAGTCG | 1.01 ± 0.027
3 | CAAATATACT | 1.14 ± 0.13
4 | CAAATGGAAG | 0.998 ± 0.028
5 | CAAATGGGAA | 0.99 ± 0.016
6 | CAAATGGGTC | 1.06 ± 0.046
7 | CAAATGTCGT | 1.008 ± 0.008
8 | CAACACGGTG | 1.08 ± 0.038
9 | CAACAGGGGG | 1.06 ± 0.056
10 | CAACATGGAG | 0.9972 ± 0.0089
11 | CAACCCGGTA | 1.51 ± 0.7
12 | CAACCGAGGC | 1.18 ± 0.028
13 | CAACCGGTTG | 0.984 ± 0.017
14 | CAACCTGGGA | 1.022 ± 0.0017
15 | CAACGGGCGG | 1 ± 0.019
16 | CAACGGTTTC | 1.01 ± 0.019
17 | CAACGTTTTG | 0.977 ± 0.023
18 | CAACTGCACG | 1.22 ± 0.079
19 | CAACTGGCGG | 0.99 ± 0.017
20 | CAACTTGAAG | 0.977 ± 0.02
21 | CAACTTTAGT | 1.031 ± 0.0035
22 | CAAGAAATCT | 1.0078 ± 0.0005
23 | CAAGACGTTG | 0.974 ± 0.012
24 | CAAGAGAATG | 0.999 ± 0.037
25 | CAAGAGGGTG | 1.11 ± 0.15

Row | Sequence | switch fluorescence ratio
26 | CAAGCGGACT | 1.06 ± 0.049
27 | CAAGCGGTT | 0.9628 ± 0.0056
28 | CAAGCTTAAA | 0.9729 ± 0.009
29 | CAAGCTTAGG | 0.995 ± 0.014
30 | CAAGGAATTT | 0.969 ± 0.023
31 | CAAGGACAGC | 1.05 ± 0.047
32 | CAAGGAGGGA | 1.01 ± 0.049
33 | CAAGGCTGGG | 1.02 ± 0.049
34 | CAAGGGGGAT | 1.01 ± 0.013
35 | CAAGGGGGTG | 1.03 ± 0.03
36 | CAAGGGGTTT | 0.99 ± 0.033
37 | CAAGGTCCGA | 0.99445 ± 0.00086
38 | CAAGGTCGGC | 1 ± 0.04
39 | CAAGGTTTAC | 0.9881 ± 0.00047
40 | CAAGTAAGTT | 0.9884 ± 0.0063
41 | CAAGTATTGT | 0.999 ± 0.025
42 | CAAGTCCATT | 1.01 ± 0.034
43 | CAAGTCCGTT | 1 ± 0.037
44 | CAAGTCTGGG | 0.9879 ± 0.0059
45 | CAAGTGAGGC | 0.987 ± 0.075
46 | CAAGTGGCAT | 1.017 ± 0.0079
47 | CAAGTTCGTG | 1.002 ± 0.0089
48 | CAAGTTTATT | 1.001 ± 0.01
49 | CAATAGAAGT | 0.979 ± 0.037
50 | CAATAGGCAG | 0.9824 ± 0.0053

Row | Sequence | switch fluorescence ratio
51 | CAATAGTCAG | 1.04 ± 0.015
52 | CAATATATCT | 1.01 ± 0.019
53 | CAATATCCGA | 1 ± 0.026
54 | CAATATTTG | 0.994 ± 0.015
55 | CAATCATGTT | 1.02 ± 0.027
56 | CAATCGACTC | 1.047 ± 0.0037
57 | CAATCTGCGC | 1.07 ± 0.043
58 | CAATCTTGTC | 0.975 ± 0.057
59 | CAATGAACAC | 1.04 ± 0.031
60 | CAATGAGGG | 0.997 ± 0.022
61 | CAATGCGGTA | 0.976 ± 0.046
62 | CAATGGCCGA | 0.9978 ± 0.0068
63 | CAATGGGACG | 1.03 ± 0.098
64 | CAATGGGTAT | 0.978 ± 0.014
65 | CAATGGGTCT | 0.9523 ± 0.0028
66 | CAATGGTTTG | 1 ± 0.018
67 | CAATGTGGCG | 0.922 ± 0.038
68 | CAATGTGGGG | 0.989 ± 0.056
69 | CAATTAACGG | 1.04 ± 0.027
70 | CAATTAGGAG | 0.979 ± 0.024
71 | CAATTAGTGA | 1.01 ± 0.028
72 | CAATTCGCTA | 1.21 ± 0.089
73 | CAATTGCGCT | 1.01 ± 0.016
74 | CAATTGGAAC | 0.99578 ± 8.3e-05
75 | CAATTGGACA | 0.982 ± 0.01

Row | Sequence | switch fluorescence ratio
76 | CAATTGGGGA | 0.995 ± 0.029
77 | CAATTGTACG | 1 ± 0.011
78 | CAATTGTTCC | 1.04 ± 0.021
79 | CAATTTAGCG | 1.02 ± 0.032
80 | CAATTTAGTG | 1 ± 0.047
81 | CAATTTGATG | 0.979 ± 0.05
82 | CACAAAAATT | 1.01 ± 0.024
83 | CACAAGCACT | 1.28 ± 0.069
84 | CACAAGGCGG | 1.03 ± 0.041
85 | CACAAGGGCC | 1.03 ± 0.018
86 | CACAATAGAT | 1.02 ± 0.022
87 | CACAATTTTT | 0.991 ± 0.025
88 | CACACGGTTC | 1.02 ± 0.028
89 | CACACTGGCA | 0.996 ± 0.05
90 | CACAGCGTCG | 1 ± 0.017
91 | CACAGGGCTG | 1.026 ± 0.0059
92 | CACAGGGGGG | 1.19 ± 0.34
93 | CACATAGACG | 1.03 ± 0.046
94 | CACATGACAC | 1.13 ± 0.015
95 | CACATGGTCG | 0.997 ± 0.02
96 | CACATGGTGT | 1.15 ± 0.02
97 | CACCACGGCA | 1.1 ± 0.045
98 | CACCCTTTGT | 0.9912 ± 0.0036
99 | CACCGAAATG | 1.17 ± 0.1
100 | CACCGAGATT | 1.07 ± 0.076
